Source: US20180346564A1 (TEIJIN PHARMA, published 2018)
[ ]: non-standard residue; d: D form. pT = C[C@@H](OP(=O)(O)O)[C@H](N)C(=O)O; pS = N[C@@H](COP(=O)(O)O)C(=O)O

T1: Peptide No. 1, pS46, H-GLKE(pS)PLQT-OH (human, SMILES CC(C)C[C@H](NC(=O)CN)C(=O)N[C@@H](CCCCN)C(=O)N[C@@H](CCC(=O)O)C(=O)N[C@@H](COP(=O)(O)O)C(=O)N1CCC[C@H]1C(=O)N[C@@H](CC(C)C)C(=O)N[C@@H](CCC(N)=O)C(=O)N[C@H](C(=O)O)[C@@H](C)O)
T1 peptide: H-GLKE[pS]PLQT-OH

T2: Peptide No. 2, pS199, H-SGYS(pS)PGSPGC-OH (human, SMILES N[C@@H](CO)C(=O)NCC(=O)N[C@@H](Cc1ccc(O)cc1)C(=O)N[C@@H](CO)C(=O)N[C@@H](COP(=O)(O)O)C(=O)N1CCC[C@H]1C(=O)NCC(=O)N[C@@H](CO)C(=O)N1CCC[C@H]1C(=O)NCC(=O)N[C@@H](CS)C(=O)O)
T2 peptide: H-SGYS[pS]PGSPGC-OH

T3: Peptide No. 3, pS202, H-SSPG(pS)PGTPC-OH (human, SMILES C[C@@H](O)[C@H](NC(=O)CNC(=O)[C@@H]1CCCN1C(=O)[C@H](COP(=O)(O)O)NC(=O)CNC(=O)[C@@H]1CCCN1C(=O)[C@H](CO)NC(=O)[C@@H](N)CO)C(=O)N1CCC[C@H]1C(=O)N[C@@H](CS)C(=O)O)
T3 peptide: H-SSPG[pS]PGTPC-OH

T4: Peptide No. 4, pT212/pS214, H-GCGSPGTPGSRSR(pT)P(pS)LPTPPTREPK-OH (human, phosphothreonine (pT) at peptide position 14 (tau Thr212); phosphoserine (pS) at peptide position 16 (tau Ser214))
T4 peptide: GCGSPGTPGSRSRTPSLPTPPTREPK

T5: Peptide No. 5, pT217, H-GC-GSRSRTPSLP(pT)PPTREPKKVAVV-OH (human, phosphothreonine (pT) at peptide position 13 (tau Thr217))
T5 peptide: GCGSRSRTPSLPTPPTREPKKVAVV

T6: Peptide No. 6, pT231, H-KVAVVR(pT)PPKSPS-OH (human)
T6 peptide: H-KVAVVR[pT]PPKSPS-OH

T7: Peptide No. 7, pS396/pS400/pS404, H-GC-RENAKAKTDHGAEIVYK(pS)PVV(pS)GDT(pS)PRHL-OH (human, phosphoserine (pS) at peptide positions 20, 24 and 28 (tau Ser396, Ser400, Ser404))
T7 peptide: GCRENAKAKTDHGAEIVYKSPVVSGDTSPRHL

T8: Peptide No. 8, pS412, H-NV(pS)STGSC-OH (human, SMILES CC(C)[C@H](NC(=O)[C@@H](N)CC(N)=O)C(=O)N[C@@H](COP(=O)(O)O)C(=O)N[C@@H](CO)C(=O)N[C@H](C(=O)NCC(=O)N[C@@H](CO)C(=O)N[C@@H](CS)C(=O)O)[C@@H](C)O)
T8 peptide: H-NV[pS]STGSC-OH


Key:
[1] = target: T1, Peptide No. 1, pS46, H-GLKE(pS)PLQT-OH; experiment: ELISA, coated peptide
Summary of the method: (§1)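 Antibody binding was taken as the absorbance signal. Plates coated with peptides or their bovine serum albumin or keyhole limpet hemocyanin conjugates (1 μg/mL in cold PBS, 50 μL/well, overnight at 4 °C) and blocked with 3% BSA-PBS overnight at 4 °C were incubated with purified antibody at 150 ng/mL for 90 minutes at room temperature. Detection used alkaline phosphatase-labelled goat anti-human IgG (H+L) at 2000-fold dilution for 60 minutes, with pNPP developed for 40 minutes and read at 405 nm (reference 550 nm).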

[2] = target: T2, Peptide No. 2, pS199, …; experiment: ELISA, coated peptide
Summary of the method: as §1

[3] = target: T3, Peptide No. 3, pS202, H-SSPG(pS)PGTPC-OH; experiment: ELISA, coated peptide
Summary of the method: as §1

[4] = target: T4, Peptide No. 4, pT212/pS214, …; experiment: ELISA, coated peptide
Summary of the method: as §1

[5] = target: T5, Peptide No. 5, pT217, …; experiment: ELISA, coated peptide
Summary of the method: as §1

[6] = target: T6, Peptide No. 6, pT231, …; experiment: ELISA, coated peptide
Summary of the method: as §1

[7] = target: T7, Peptide No. 7, pS396/pS400/pS404, …; experiment: ELISA, coated peptide
Summary of the method: as §1

[8] = target: T8, Peptide No. 8, pS412, H-NV(pS)STGSC-OH; experiment: ELISA, coated peptide
Summary of the method: as §1

[9] = target: T9, His-tagged non-phosphorylated tau protein 4R0N (human, UniProt P10636 2-758); experiment: SPR Biacore T200, antigen immobilized
T9 construct: Produced by Escherichia coli; negative control in SPR; also called ATGen Cat. No. ATGP0795
T9 sequence (P10636 other isoform, or with tags, fused parts or gaps limits assumed): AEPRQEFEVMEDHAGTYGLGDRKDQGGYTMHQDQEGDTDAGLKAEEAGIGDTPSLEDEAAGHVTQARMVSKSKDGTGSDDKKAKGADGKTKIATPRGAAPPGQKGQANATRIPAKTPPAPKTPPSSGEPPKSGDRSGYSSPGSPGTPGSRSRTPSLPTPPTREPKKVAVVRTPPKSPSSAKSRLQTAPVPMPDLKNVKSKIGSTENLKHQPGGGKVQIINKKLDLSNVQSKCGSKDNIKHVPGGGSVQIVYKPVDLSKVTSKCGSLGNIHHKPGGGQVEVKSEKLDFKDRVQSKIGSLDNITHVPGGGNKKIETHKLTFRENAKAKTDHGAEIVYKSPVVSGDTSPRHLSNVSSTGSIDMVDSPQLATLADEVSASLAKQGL
Procedure: The binding affinities of the hyperphosphorylated tau protein 4R2N (hpTau), non-phosphorylated tau protein 4R0N, monophosphorylated tau peptide 1×P, triphosphorylated tau peptide 3×P, and non-phosphorylated tau peptide Non P with each antibody were measured with an SPR system Biacore T200 (GE Healthcare Japan), in accordance with the instruction manual for evaluation attached to the system.
The His-tagged hpTau or Tau proteins were each immobilized on a sensor chip using an HBS-N buffer (code No. BR-1003-69) as the immobilization reaction solution and allowing a nickel chloride solution to react with the NTA sensor chip for bonding Ni to NTA. Subsequently, the sensor chip was activated with a mixed solution of N-ethyl-N′-(3-dimethylaminopropyl)-carbodiimide hydrochloride (1-ethyl-3-(3-dimethylaminopropyl)carbodiimide hydrochloride: EDC) and N-hydroxysuccinimide (NHS). A solution of each of the His-tagged proteins, adjusted to a concentration of 100 to 500 ng/mL with a 4-(2-hydroxyethyl)-1-piperazineethanesulfonic acid (HEPES) buffer (0.01 M HEPES, 150 mM KCl, 2 mM DTT, 1 mM EDTA, pH 7.2), was applied to the sensor chip, whereby the protein was immobilized on the sensor chip through covalent bonds with the Ni-NTA. The remaining active NHS was blocked with ethanolamine, and Ni ions were removed with an EDTA solution (Ni-affinity amine coupling: see International Publication No. WO2005/022156). The antigen peptides (1×P, 3×P, and Non P) were each immobilized on a sensor chip by activating the NTA sensor chip with a mixed solution of N-ethyl-N′-(3-dimethylaminopropyl)-carbodiimide (EDC) hydrochloride and N-hydroxysuccinimide (NHS), and then applying a solution of the antigen peptide diluted with a 10 mM sodium acetate buffer (pH: 4 to 4.5) to 1 to 10 μM to the sensor chip, whereby the peptide was covalently bound to the sensor chip. The remaining active NHS was blocked with ethanolamine. Thus, sensor chips immobilized respectively with the proteins and peptides mentioned above were produced.
A CAPS buffer (pH 10.5) was applied to these sensor chips at 37° C. to stabilize the protein- or peptide-immobilized surfaces of the sensor chips.

Binder | binding result [1] | binding result [2] | binding result [3] | binding result [4] | binding result [5] | binding result [6] | binding result [7] | binding result [8] | binding result [9]
chimeric antibody Ta1505 (antibody, human IgG1, kappa, V domains shown, Mouse Ta1505 variable regions with human IgG1(kappa) constant regions. chim; also called the chimeric antibody; Chimera) VH: EVQLVESGGGLVQPKGSLKLSCAASGFAFNSFALNWVRQAPGKSLEWVVHIRSKTNNYATFYADSVKDRFTVSRDDSQSMVYLQMNNLKTEDTGIYYCVRRGPRDSWFGYWGQGTLVTVSA VL: DILMTQTPLSLPVSLGDQASISCRSSQNIVHSNGNTYLEWYLQKPGQSPKVLIYTVSNRFSGVPDRFSGSGSGTDFTLKISRVEAEDLGVYYCFQGSHLPLTFGGGTKLELKR | no binding (tested: OD value <0.5; antibody 150 ng/mL) | no binding (tested: OD value <0.5; antibody 150 ng/mL) | no binding (tested: OD value <0.5; antibody 150 ng/mL) | no binding (tested: OD value <0.5; antibody 150 ng/mL) | no binding (tested: OD value <0.5; antibody 150 ng/mL) | no binding (tested: OD value <0.5; antibody 150 ng/mL) | no binding (tested: OD value <0.5; antibody 150 ng/mL) | no binding (tested: OD value <0.5; antibody 150 ng/mL) | no binding (tested: 0.2 to 1 nM)
humanized antibody L48H11 (antibody, human IgG1, kappa, V domains shown, VL48/VH11, human IgG1/kappa) VH: EVQLVESGGGLVQPGGSLRLSCAASGFTFSSFALNWVRQAPGKGLEWVGHIRSKTNNYATFYAASVKDRFTVSRDDSQNTAYLQMNSLKTEDTATYYCVRRGPRDSWFGYWGQGTLVTVSS VL: DIVMTQSPLSLPVTLGDPASISCRSSQNIVHSNGNTYLEWYQQKPGQSPQLLIYTVSNRFSGVPDRFSGSGSGTDFTLKISRVEAEDLGVYYCFQGSHLPLTFGGGTKVEIKR | no binding (tested: OD value <0.5; antibody 150 ng/mL) | no binding (tested: OD value <0.5; antibody 150 ng/mL) | no binding (tested: OD value <0.5; antibody 150 ng/mL) | no binding (tested: OD value <0.5; antibody 150 ng/mL) | no binding (tested: OD value <0.5; antibody 150 ng/mL) | no binding (tested: OD value <0.5; antibody 150 ng/mL) | no binding (tested: OD value <0.5; antibody 150 ng/mL) | no binding (tested: OD value <0.5; antibody 150 ng/mL) | no binding (tested: 0.2 to 1 nM)
humanized antibody L15H11 (antibody, human IgG1, kappa, V domains shown, VL15/VH11, human IgG1/kappa) VH: EVQLVESGGGLVQPGGSLRLSCAASGFTFSSFALNWVRQAPGKGLEWVGHIRSKTNNYATFYAASVKDRFTVSRDDSQNTAYLQMNSLKTEDTATYYCVRRGPRDSWFGYWGQGTLVTVSS VL: DIVMTQSPLSLPVTLGEPASISCRSSQSIVHSNGNTYLEWYQQKPGQSPRLLIYTVSNRFSGVPDRFSGSGSGTDFTLKISRVEAEDLGVYYCFQGSHLPLTFGGGTKVEIKR | no binding (tested: OD value <0.5; antibody 150 ng/mL) | no binding (tested: OD value <0.5; antibody 150 ng/mL) | no binding (tested: OD value <0.5; antibody 150 ng/mL) | no binding (tested: OD value <0.5; antibody 150 ng/mL) | no binding (tested: OD value <0.5; antibody 150 ng/mL) | no binding (tested: OD value <0.5; antibody 150 ng/mL) | no binding (tested: OD value <0.5; antibody 150 ng/mL) | no binding (tested: OD value <0.5; antibody 150 ng/mL) | no binding (tested: 0.2 to 1 nM)
humanized antibody L36H11 (antibody, human IgG1, kappa, V domains shown, VL36/VH11, human IgG1/kappa) VH: EVQLVESGGGLVQPGGSLRLSCAASGFTFSSFALNWVRQAPGKGLEWVGHIRSKTNNYATFYAASVKDRFTVSRDDSQNTAYLQMNSLKTEDTATYYCVRRGPRDSWFGYWGQGTLVTVSS VL: DIVMTQSPLSLPVTLGDPASISCRSSQSIVHSNGNTYLEWYQQKPGQSPQLLIYTVSNRFSGVPDRFSGSGSGTDFTLKISRVEAEDLGVYYCFQGSHLPLTFGGGTKVEIKR | no binding (tested: OD value <0.5; antibody 150 ng/mL) | no binding (tested: OD value <0.5; antibody 150 ng/mL) | no binding (tested: OD value <0.5; antibody 150 ng/mL) | no binding (tested: OD value <0.5; antibody 150 ng/mL) | no binding (tested: OD value <0.5; antibody 150 ng/mL) | no binding (tested: OD value <0.5; antibody 150 ng/mL) | no binding (tested: OD value <0.5; antibody 150 ng/mL) | no binding (tested: OD value <0.5; antibody 150 ng/mL) | no binding (tested: 0.2 to 1 nM)
humanized antibody L47H64 (antibody, human IgG1, kappa, V domains shown, VL47/VH64, human IgG1/kappa) VH: EVQLVESGGGLVQPGGSLRLSCAASGFTFNSFALNWVRQAPGKGLEWVVHIRSKTNNYATFYAASVKDRFTVSRDDSQNTAYLQMNSLKTEDTATYYCVRRGPRDSWFGYWGQGTLVTVSS VL: DIVMTQSPLSLPVTLGDPASISCRSSQSIVHSNGNTYLEWYQQKPGQSPQRLIYTVSNRFSGVPDRFSGSGSGTDFTLKISRVEAEDLGVYYCFQGSHLPLTFGGGTKVEIKR | no binding (tested: OD value <0.5; antibody 150 ng/mL) | no binding (tested: OD value <0.5; antibody 150 ng/mL) | no binding (tested: OD value <0.5; antibody 150 ng/mL) | no binding (tested: OD value <0.5; antibody 150 ng/mL) | no binding (tested: OD value <0.5; antibody 150 ng/mL) | no binding (tested: OD value <0.5; antibody 150 ng/mL) | no binding (tested: OD value <0.5; antibody 150 ng/mL) | no binding (tested: OD value <0.5; antibody 150 ng/mL) | –
